The results in this text go back to PMC10532153 (2023).

One experiment concerns the target T1, Sos-S2 peptide (Drosophila melanogaster, UniProt P26675).
T1 chain: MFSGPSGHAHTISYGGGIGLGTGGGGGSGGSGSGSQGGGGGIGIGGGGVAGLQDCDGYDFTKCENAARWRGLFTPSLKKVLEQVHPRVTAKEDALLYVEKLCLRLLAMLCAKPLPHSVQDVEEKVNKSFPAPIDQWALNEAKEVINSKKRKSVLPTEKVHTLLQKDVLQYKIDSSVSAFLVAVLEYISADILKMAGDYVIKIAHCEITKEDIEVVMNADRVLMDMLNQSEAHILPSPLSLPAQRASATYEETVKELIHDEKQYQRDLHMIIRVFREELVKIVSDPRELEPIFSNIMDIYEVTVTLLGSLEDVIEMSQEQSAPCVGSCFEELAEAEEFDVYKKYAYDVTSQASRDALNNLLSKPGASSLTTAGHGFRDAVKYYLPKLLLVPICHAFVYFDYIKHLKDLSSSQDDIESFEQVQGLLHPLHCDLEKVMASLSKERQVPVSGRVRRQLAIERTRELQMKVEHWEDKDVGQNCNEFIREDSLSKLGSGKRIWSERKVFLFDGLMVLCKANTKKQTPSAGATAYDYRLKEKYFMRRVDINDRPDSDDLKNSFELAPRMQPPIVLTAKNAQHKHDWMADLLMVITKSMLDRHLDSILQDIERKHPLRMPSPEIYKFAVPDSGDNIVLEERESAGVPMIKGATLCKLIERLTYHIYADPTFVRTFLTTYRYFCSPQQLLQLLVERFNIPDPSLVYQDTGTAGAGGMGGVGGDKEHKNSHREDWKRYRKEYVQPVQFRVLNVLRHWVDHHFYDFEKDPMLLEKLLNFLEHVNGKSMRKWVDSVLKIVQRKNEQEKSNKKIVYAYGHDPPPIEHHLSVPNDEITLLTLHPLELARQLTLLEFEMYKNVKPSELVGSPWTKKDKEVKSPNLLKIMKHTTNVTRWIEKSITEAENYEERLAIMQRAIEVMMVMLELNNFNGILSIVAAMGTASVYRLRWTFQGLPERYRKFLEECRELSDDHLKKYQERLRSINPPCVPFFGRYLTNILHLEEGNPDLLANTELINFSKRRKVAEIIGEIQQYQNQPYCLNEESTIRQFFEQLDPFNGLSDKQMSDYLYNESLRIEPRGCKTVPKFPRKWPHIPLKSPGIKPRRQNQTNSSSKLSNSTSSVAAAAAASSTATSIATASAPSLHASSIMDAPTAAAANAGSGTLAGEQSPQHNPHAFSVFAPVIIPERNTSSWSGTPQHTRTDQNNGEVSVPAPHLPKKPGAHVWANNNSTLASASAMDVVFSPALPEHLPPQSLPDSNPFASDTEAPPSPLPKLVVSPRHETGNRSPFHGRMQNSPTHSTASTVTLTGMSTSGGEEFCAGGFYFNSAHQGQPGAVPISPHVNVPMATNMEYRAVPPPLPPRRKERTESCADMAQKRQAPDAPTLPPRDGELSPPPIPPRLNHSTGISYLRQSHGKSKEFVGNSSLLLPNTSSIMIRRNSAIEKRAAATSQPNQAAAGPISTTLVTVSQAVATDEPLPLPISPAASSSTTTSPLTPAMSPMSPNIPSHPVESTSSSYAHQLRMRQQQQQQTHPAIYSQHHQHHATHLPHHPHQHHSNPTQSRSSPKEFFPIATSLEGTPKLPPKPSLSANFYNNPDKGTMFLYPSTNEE
As to the kind of experiment: NMR titration.

The next experiment deals with T2, Sos-S1 peptide (Drosophila melanogaster, UniProt P26675).
T2 chain: T1 chain
In words: NMR titration.

B1: Drk NSH3 (protein)
chain: MEAIAKHDFSATADDELSFRKTQILKILNMEDDSNWYRAELDGKEGLIPSNYIEMKNH
Broadly, the Kd is the free concentration of one partner at which half of the binding sites on the other are occupied at equilibrium, for simple one-to-one binding. Low readings indicate higher affinity, high ones lower affinity. Take B1: the Kd is around 41 µM with Sos-S2 peptide and around 13 µM in the experiment with Sos-S1 peptide.

B2: Drk CSH3 (protein)
chain: PEEMLVQALYDFVPQESGELDFRRGDVITVTDRSDENWWNGEIGNRKGIFPATYVTPYHS
B2 returned a Kd with Sos-S1 peptide of around 160 µM.
